{
  "source": "the DeepSol protein solubility set",
  "data": [
    {"assay": "soluble on expression in E. coli; label from the status in PepcDB or PDB records", "values": [
      {"sequence": "MTMTQQIKAVVYDFGGVLLSYEGVMEKWVAMSRSLGLPDDAVHSESVGIEFSQWLGPDRSLFLGTLTVDDLEGGLFLQYLKHKYGNKLTDNVVIKPFTECLRGENVKIHKNMQKTVEILHKKGFKTAMLTNNMFLDKEHKETRLPCDLTHFDEVVESCLEHLMKPDARFYHLVEKRLGVKPEEIVFLDDLHENIEAAEKLGWNTILVEDIEKAIHELEGFTKVKLI", "soluble on expression in E. coli": "not soluble"},
      {"sequence": "MERSRDFLLQAKRDLEQARLSLREGFFEWAAFAAQQAAEKAVKAVFQRLGAVAWGHSVAGLLEELAQKLPVPEALLDAASELDKAYIPSRYPDALPEGAPFQRYRRGEAERLLGHAEAVYAYCEGVLSQMDEGGAPPPHRGGA", "soluble on expression in E. coli": "soluble"},
      {"sequence": "MTIREEGLIVKDQVLSCYLKGKRCLFVIVKILKDSSNSFLCTVQNKNGDQYVKKWFRKHENNEKLGRPTFKEVEKDWKENKESFMYPNVKALY", "soluble on expression in E. coli": "not soluble"},
      {"sequence": "MEKTITIYTDGAASGNPGKGGWGALLMYGSSRKEISGYDPATTNNRMELMAAIKGLEALKEPARVQLYSDSAYLVNAMNEGWLKRWVKNGWKTAAKKPVENIDLWQEILKLTTLHRVTFHKVKGHSDNPYNSRADELARLAIKENS", "soluble on expression in E. coli": "soluble"},
      {"sequence": "MYEPLHRDAEQKDTAPHDPISILLLGIDERPGDKGRPDSMIVMTVNPKTKKTTMTSIPRDTRVFIKSKNKFSKMNSAYTYGGIEGTVETVEQFLNIPINYYIKINMDGFKDIVDAIGGVTVDNRIDFTLEGVHLSKGKQHLDGKTALTYARMRKDDPRGDFGRQERQREIINEIIHEGAQLKSLTNYQEILAALEKNIKTNLTLDKMIDIQSSYKEAAKDIKQVEIEGEDKKVDSLWYHLVTDEKRMEISKKLRQQLDLKSLEHHHHHH", "soluble on expression in E. coli": "soluble"},
      {"sequence": "MGSDKIHHHHHHMRAEIRNLNVKGGHYYLELAEKDADTDKVIASCKATIWKFSASKIVLKFERETGIELASDLNVLIKIRARFDPQYGFSVNIEEIDSSFTLGEIAKRYQQIVERLTQEGLIHKNKLLPTPFDIQNVLVIAPQNAAGLGDFKKDADALERNGVCHFVYQSATFQGNTAAVSLMESLATGLKQWANNFNFPPDLIVIIRGGGAVNDLAYLNDYELAALLCKRSVPIWVGIGHEKDRTILDEIAHRSFDTPSKVIAGIRNHIVERVQEAVDNLQTIKLLSQHQITTYQSKSDQYLQHIKSSAQAQLNSAHQFLEQIKERIQFVSQQQVKFSLSQTESLMREILLQNPKQIQAKGYAIVRSEGKAIRSIHQITNSTITVDMQDGAINANITEVIPNE", "soluble on expression in E. coli": "not soluble"},
      {"sequence": "MGSDKIHHHHHHMPSLKLSLTGLQIIKQARSEKGWTIDNPCWLEQASQVLEPGRNWENAEVFAAGVSLATWKRFLKGDAIDASVFKAFCQVLGLNWQDLVERPPNSFIIGTTQIPNIPLFFGRRYELTTLSQAIEQGTRLIAITGIGGMGKTALATKLVESRSSHFSQTLWFSFHHNPPAKDKIPTLVPQTLMVFDGWDGILGGNRGGQYRPEYEPYADFLRTVVQTTHTSCVIITSREQPEGLNILGAGGAVIFPLGGLMEGAIELLQHHQLTFNAQQWITLVNQYGGNPLFLNMAANFIHELFAGDVGEFLASGTLVAGEFAPLVTQWLKQISTLEQILIKSLATKVQGFTRQEILLHLASRAANGDILAALLSLKRRGLIETMKDGELERFYLQPVILKCVQRLF", "soluble on expression in E. coli": "not soluble"},
      {"sequence": "MLKRKVITEFRRHNRSSRWNADAHLRAHERSANVEDDAIMRVDTCQLAANNPIEDFYSAAKCLSSRAFLFGVFDGHGGQQCSRHISTNLYPYLCASVLKKHEVVDYPSDQRLEWLFSSSDGHLPNAFKGRETQHIAEYHKQFKKNANAYTGTVREALKLAFETCDKDLAENALPSAKGVIDRHAAMVAASGSCCTLAHIRSRHLHVANLGDAAAVLGVVNPNGSVTARQLSRAHCVDNADEVHRIRIAHPASESQTVLRGGRLLGELFPLRAFGDVRYKWPLDLQKVVLEPLGHPPPQHLFTPPYLSTSPEVFYHKLTPNDRFLVLATDGLWEWLDPDTVVRLVHDHTLGTITQQPYVPKSGTSLRQVREQLKDRARGEQKTKKPIDENCATHIIRHALGGVSGGATKQYERLIDILQVPPGRARNYRDDITVIVIHFNETFLDGHEDDEE", "soluble on expression in E. coli": "not soluble"},
      {"sequence": "MKPLSSPLQQYWQTIVERLPEPLAEESLSAQAKSVLTFSDFVQDSISAHPEWLTELESQPPQADEWQHYVAWLQEALINVSDEAGLMRELRLFRRRIMVRIAWAQTLALVTEESILQQLSYLAETLIVAARDWLYDACCREWGTPCNAQGEAQPLLILGMGKLGGGELNFSSDIDLIFAWPEHGCTQGGRWELDNAQFFTRMGQRLIKVLDQPTQDGFVYRVDMRLRPFGESGPLVLSFAALEDYYQEQGRDWERYAMVKARIMGDSEGVYANELRAMLRPFVFRRYIDFSVIQSLRNMKGMIAREVRRRGLTDNIKLGAGGIREIEFIVQVFQLIRGGREPSLQSRSLLPTLSVIAALHLLSENDAEQLRVAYLFLRRLENLLQSINDEQTQTLPSDELNRARLAWAMDFADWPQLTGALTAHMTNVRRVFNELIGDDESETQEESLSEQWRELWQDALQEDDTTPVLAHLSEDDRKQVLTLIADFRKELDKRTIGPRGRQVLDHLMPHLLSDVCAREDAAVTLLRITALLAGIVTRTTYLELLSEFPAALKHLISLCAASPMIASQLARYPLLLDELLDPNTLYQPTATDAYRDELRQYLLRVPEDDEEQQLEALRQFKQAQLLRIAAADIAGTLPVMKVSDHLTWLAEAMIDAVVQQAWVQMVARYGKPNHLNEREGRGFAVVGYGKLGGWELGYSSDLDLIFLHDCPMDAMTDGEREIDGRQFYLRLAQRIMHLFSTRTSSGILYEVDARLRPSGAAGMLVTSTEAFADYQKNEAWTWEHQALVRARVVYGDPQLTAHFDAVRREIMTLPREGKTLQTEVREMREKMRAHLGNKHRDRFDIKADEGGITDIEFITQYLVLRYAHEKPKLTRWSDNVRILELLAQNDIMEEQEAMALTRAYTTLRDELHHLALQELPGHVPEDCFTAERELVRASWQKWLVEE", "soluble on expression in E. coli": "not soluble"},
      {"sequence": "MSLASTEEETQAVMKVYSKEDYSVVNRFESHGGGWGYSAHSVEAIRFSADTDILLGGLGLFGGRGEYTAKIKLFELGPDGGDHETDGDLLAETDVLAYDCAAREKYAMMFDEPVLLQAGWWYVAWARVSGPSSDCGSHGQASITTDDGVIFQFKSSKKSNNGTDVNAGQIPQLLYRLPTSDGSTSKGKQQTSEPVHILKRSFARTVSVECFESLLSILHWSWTTLVLGVEELRGLKGFQFTATLLDLERLRFVGTCCLRLLRVYTCEIYPVSATGKAVVEETSKLAECIGKTRTLLRKILSEGVDHCMVKLDNDPQGYLSQPLRLLEAVLQECHNTFTACFHSFYPTPALQWACLCDLLNCLDQEANFKTSSSRLLAAVMSALCHTSVKLTSLFPIAYDGEVLLRSIVKQVSTENDSTLVHRFPLLVGHMEKLSQSEENISGMTSFREVLEKMLVIVVLPVRNSLRRESELFSSHLVSNTCGLLASIVSELTASALGSEVDGLNSLHSVKASANRFTKTSQGRSWNTGNGSPDAICFAVDKPGIVVVGFAVYGGGGIHEYELEVLVDDSEHAGDSTHSHRWTSLELVKGTYTTDDSPSDIAEIRLDKVVPLKENVKYAVRLRNYGSRTANGDGGMTTVQCPDGVTFTFSTCSLSSNGTNQTRGQIPQILYYRSEEGHHHHHH", "soluble on expression in E. coli": "soluble"},
      {"sequence": "SNAMMIKASTNEFRFCFKQMNKSQHELVLGWIHQPHINEWLHGDGLSNTIKDLHEFLNDGKPWATHWIAYDNEIPFAYLITSEIEKSEEYPDGAVTLDLFICRLDYIGKGLSVQMIHEFILSQFSDTKIVLINPEISNERAVHVYKKAGFEIIGEFIASWHPVPHYKMKLCIEDLKKQRLSA", "soluble on expression in E. coli": "soluble"},
      {"sequence": "MMSISQLLGCISKQVDGQYIAQYEELTLRSVFQPIYKKDLSIIGLEALVRISTADGSMIRPDLFFQSPSISEHVQLNVERLSRLIHIKNFGQSRYRNKKLFLNVLPRAAEMLAKDLSYSHLLKQVICEADLCREQIVMELVELSAGDESFLYKATKELSDGGFKLAIDDYGINASTIERVKCVRPDIIKMDRSLLLKYEDGDFSALIEALALAKELSSKTVIEGIETEHQLNLMKKLGFDMYQGYLLAMPQTLEMYEEAKTA", "soluble on expression in E. coli": "not soluble"},
      {"sequence": "MIIDCHGHYTTAPAAHDAFRKAQIAHHDDPQQPAPQYPHISDDALRESIEQHQLRLLRERGADMTIFSPRASTMAHHIGNEAVSQVWTQRCNDLIARVVQLYPHTFIGVCQLPQSPGVPISHSIAELERCVNELGFVGCNLNPDPSGGHWNGVPLTDRAWYPFFEKMVELDVPAMVHVSGSCNANFHATGAHYLNADTTAFMQFLEGDLFRDFPSLRFIIPHGGGAVPYHWGRFRGLADMLGKPPLATHVMRNVFFDTCVYHQPGIDLLFEVIDIDNILFGSEMVGAVRGIDPQTGHYFDDTKRYIDALTISDADKRKVFEGNARRVYPRLDAQLRARGLLEHHHHHH", "soluble on expression in E. coli": "not soluble"},
      {"sequence": "MSLAKLRPTKTFKPKPPAGLPDRETLLAFLRDAGETGKADIARHFGLKGADRRALREMIRELEAQGALAKRGRKGFAEAGSLPPVGVADVVERDGDGELYVKLTKSDDDVPNVRLAPGKGEAAAGAPGLGDRLLVRFERLETGEFEAKLIKKLGQSAHKILGVIRKHRREVRVEPVDRKSKESLVLDPSVAHDFKEGDLVLAQVGTHGGRYGPKPGKVLEVVGTENDPRAASLIAIHSHGIPTGFSEAAEAEAKTAVEPTLAGREDLRDLPFVTIDPVDARDHDDAVYAHPDEDETNKGGFVVWVAIADVAAYVRPGSALDRDAREKGNSVYFPDRVEPMLPETLSNGLCSLRESENRATLAVRMVFDKSGRKKGHRFVRGLMRSAAKLSYEQAQAAIDGQPDDKAGPLLDPILKPLWDAYRTMKIGRDARSPLAIESDERRIIIKGGEITSITKRASLEAHKLIEEMMVQANVCAAESLEAKRSPLIYRVHDTPSLEKVQNLADFLQTLEIRWSKGEAPQTARFNKLLEETRESPNAAIINEVVLRTQMQAHYSADNIGHFGLNLAKYAHFTSPIRRYADLIVHRGLIRALGLGTDGLTDQDIAQIKDTAEVITHAERRAMAAERDATDRYIAAFLADRVGATFEGRITGVTRFGLFIKLADTGADGLVPVSSLGQEFFVHDDKMHALVGERTGKRWPLGLSVEVKLVEATPVTGGLLFEMLSEPLPPDPKMPRPRLGARRQAAVKPRGGLPKGVRRGKRREGHHHHHH", "soluble on expression in E. coli": "soluble"},
      {"sequence": "MGHHHHHHSHMHVDREFAVVTDMKNSSSVSNTLTNGCVINGHLDFPSTTPLSGMESRNGQCLTGTNGISSGLAPGQPFPSSQGSLCISGTEEPEKTLRANPELCGSLHLNGSPSSCIASRPSWVEDIGDNLYYGHYHGFGDTAESIPELNSVVEHSKSVKVQERYDSAVLGTMHLHHGS", "soluble on expression in E. coli": "not soluble"},
      {"sequence": "MLTIERHEQIVKLVQEKEVVTIHDLVEYTNASESTIRRDLTELEKQKKLKRIHGGASVLKKRREEPTMAEKTVKNNHEKKKIAELAASFVEDGDCLFLDAGTTTYELIPFIKTKKIVVVTNGLDSISALLEAGVETYVIGGTVKQGTRAFVGRHAIQSLQTFRFDKAFLGINGVHLEDGFTTPDPQEAYVKETALSLSREAFMLVDHSKFGETTFATVAPIHAATIVTSSQVEQQVIQAYETQTAVKVVTLLEHHHHHH", "soluble on expression in E. coli": "soluble"},
      {"sequence": "KGYDSHKIALAQSETEMRNLSHSLAEHATHTFQGADVVLDDIVSFMKWRPHPSPVFNERLRALADNLPQLSDVAILDADGQLTYASVKPVPALDNSDRSYFRYHRANDDHTLLITGPIQSRTSGVWVFVVSRRLETTDGKFFGVVVATIESEYFSTFYKTFDLGPGGSISLLHSDGRLLIQWPSLQTGRDMANMVLFQKALPRSPDGYYLTVSPFDGLTKYLAYRRVSRYPLVVTVARTEDSVLSGWREAVRSD", "soluble on expression in E. coli": "soluble"}
    ]}
  ]
}
